Results from the DeepSol protein solubility set.

assay: soluble on expression in E. coli; label from the status in PepcDB or PDB records

| Sequence | soluble on expression in E. coli |
| --- | --- |
| MINLELGKDFLDRFTKVCEFLRVEPSLDVVVFECESLEEFHEITGMPYHTGGVYHEGVIYTQPLDVLRRKNSLEATILHELLHHVLEMYFDLPRWMEEGVVLAVLGVKPEEVFGYHRDCLLRFMEKVRYEEIPDLVDRYRRSSVERRLEHHHHHH | soluble |
| MGSDKIHHHHHHMNFISRVTKKNTYMKKAVIYSRVSTDEQAQLGYSLRDQERCLRLFCEKNDLEVVHHYQDDHSAKDFNRPQFQQFLRDVKSKRIKVDYFVCLKQDRFSRDTRLALNSVHDLEKLGVTVKYVENNLDLSIAENIIPYLLNFGIAELENKRLSERTKKGMRQAKREGRWVGTPPRGYKSIPDSTGKKILTPNQYSTLIIEAFTEFAQGNHSTESLRKVLYARGLKVSENQFPNILKNPIYCGKIRIDEWKEEKEEIVIGIHEPLISVELFEKVQRILNGTSTPNKPHKKLDPELPLRPFLKCSCGSNLTGSRSRSRNGNYHYYYHCQNGCSVRFPAKVANKKFETFLSMFSFSEDVILLYKEVLKDEFSKQVKERLELSAADAALKLKTQNLLDNADEKYIANELDNTTYQRVKEKYQKILDTITNKELDSKVVKSEFEKYLKGVTLLDSLDVKYKEGTIEFKNALLGSIFMGKLEFSENEYRTTQINSVVENLLLNFNELASYKKEKATTNSGFLQQAPPLGLEPRTP | not soluble |
| AQGLQARFQLLRVLEVPADDAVAKGLEISFGEPVALIERLGLADEEPISVGSGYFPLKRFPDFLEPENIKILQEQQSISQFLQQVYGCDHIRRSTCVSARLVQPQDAKWLQIPLNQPILLAESVNVDQAGNVIEYGVTRLRGDRME | not soluble |
| MSLDGPVVFICGKCKLPVGDSLSWDGSEDEQNQIRLKRVTDNVYVGKENRMYEVGKRSLCLIVDLLCQGCHSVLGMVYASTPKNMDHKRFTFCLNVADIDSYVLGSASQSLAAGGAGEQPVTLEYRSQVEEQLSQMKMLVMSMALKLEEIEIGRREGYEREGHHHHHH | not soluble |
| MISCFNRQCPTGTISYTVRAGDTLYLIAGRFNTTVEAILAANPGIVPERLYIGQVICVPYAQPPQPACPIGTSPYEIKSGDTLSKIAAKFNTTVGDILNANPGIIPEKLYVGQKICIPQPKSENPGCPTMNYYVIQKGDTLPAIAKIFNVTVQQLINANPGINPNALYVGQVICIPVAPSSVRIIVSIAAKTLSLYRDGRLVKSYPVATGKPTTPTPRGTFTIINKQVNPGGPFGTRWMGLSQPHYGIHGTNNPASIGTAASNGCIRMYNEDVNELFNLVSVGTPVTIY | soluble |
| MAHHHHHHMSSDDECPELISARVPVTVLTGFLGSGKTTLLHYILSADHDMRIAVIVNEFEFGKTIEKGLTLKSSEKPDDEWLELNNGCMCCTAQTQTVKALESLMEHRGTFDLILVETSGLADPGPIAAMFWQDLPLCGHLYLSGIVTLVDAVNICRYLDDEDVMREAERQILMADKVVLNKCDIATEAQQKAALAAVREINPVATVIPSDHSRVPNLRDILFIDTTRAATELVHLHEHHHSSISAVSLEFFEAERAFAVSSYRDVHAIGSDLLYRCGDYGFEVVRCKAAIWCCEDGQYRLLQLQSIGDLFDVTPMVGQSVPFGCTRALVLGKQLDEVKLRDIFAKYLKATK | not soluble |
| MPKWGNINERRNQLHEVIRLSGMNLIIDDTDHPLIIKVASIQSARMQVYFIDNDDYFQNRLQTADENGVEYDDNDSRAIFYARGVLETVKKLRWCPDVIHCHGWMTALAPLYIKKAYKDEPSFRDAKVVFSVYEDDFKGTFNNDFASKLMLKGINKKDVATLKDPVDYATLCKLAVDYSDGIVQNSEHVNEDVMNYARQSGKLVLDYQAPDALADACNSFYDQVWEAEQK | not soluble |
| EYGYEDLRESSNSLLNHQLSEIDQARLYSCLDHMREVLGDAVPDDILTEAILKHKFDVQKALSVVLEQDG | soluble |
| GAMSSKNEWRKSAIANTLLYLRLKNIYVSADDFVEEQNVYVLPKNLLKKFIEISDVKIQVAAFIYGMSAKDHPKVKEIKTVVLVPQLGHVGSVQISNIPDIGDLPDTEGLELLGWIHTQTEELKFMAASEVATHSKLFADKKRDCIDISIFSTPGSVSLSAYNLTDEGYQWGEENKDIMNVLSEGFEPTFSTHAQLLLSDRITGNFIIPSGNVWNYTFMGTAFNQEGDYNFKYGIPLEFYNEMHRPVHFLQFSE | soluble |
| GPGSMRRTFKKLGLSALRACRGAGAAGTAASAHTSGFARVPSMSAPTALTVPRRSASDAALADATRRELEEEMGRSDKPEQPTPPAGWQVVRKPGTCTFDLTKSFEGEDLVVRYSTNQDSDKANSHNIFVYITQKNGQTMQADLSIEEGELVLNNIRFYDEAALAKDTGAEAEAKRNELYTGPLVHELDYDLLNCVMTYLEKRGVDEKLGEFVVLYSFWAEQQDYEAWLTTMNKFAS | not soluble |
| MNTSEHEREHDHVIEVTDLRRVYGGDFEAVRGITFSVERGELFALLGTNGAGKTSTVELLEGLAAPSGGRVRVLGHDPYEERAAVRPRTGVMLQEGGFPSELTVAETVRMWAGCTSGARPVGEALSLVGLERRPDVRVKQLSGGERRRLDLALALLGRPEVLFLDEPTTGLDAEGRQETWELVRELRDGGTTVLLTTHYLEEAEGLADRLAILHEGRIATAGTPAEVTAAQPSRISFDLPDGYFLGDLPPLADLGVSTHETTGRTVRLRTHELQRTATALLLWAQRAQVELRGLDVRSASLEEAFLRIAREAAGDRPGRPGRTDVSGTTASGKEAVALEHHHHHH | soluble |
| MGSDKIHHHHHHMLVPMSEGDTSELDHDADHLAEGDERYLLRNKRQIRGLLQQLIDQRAVVTMHVAGRDMAVPTAVLEVDEDDDCVILDGSHNDASNRAIEQAKYLLCYAQLERVNIRFRLETPERLERDIHVAFRATLPDSLYHLQRRESYRLETPITDSPTCTIRQDAASGGNLNLQLRVIDISSGGLAVSLTTGMPLLDPQHTYRDCTLQLPDSAPIALPLTVCSQYKMTLPNGSEGFRVGMQFSDLPRGADETIQRYIFRVDRQRNARKSGVF | not soluble |
| MGSDKIHHHHHHGTISHSVEPGDNLYNLAARYMGNPHAWPDIQKLNHISNPHRLKPGTSLLIPKVSSTVTASFVHGEAWLVDDAGNTIKRIAHGDQLNEGDIVRTGQHSYLSLEFADHSVARILSNTHVRLDRIKESGLVPQGQRVIYLEQGNMDVSVTPAPKCNSQHFKVITPQAVAAVRGTRFSVGVGSVSATSVTQGKVEMQPPQPGKSRSGKMLQAGQGIAASGNGLGEVQPLLAAPDLSQLPSMLPEPELLQFDWPAVNGGSEYQYRIAQDEGMEQVLWNAASYSASATLPSLQDGEYLLAVRALDSYGIPGYEAQHRFIIHSHPSSPWLLSPQQGQPIDGNGILRCTPVEGAQGYHLQIATDDEFRELVVDSGPLDRCQYQLASLAEGDYYWRVASVNAEEEGRLGPYSQPASLTVSQDAHTLPIIAGEAYWTSTLQDARYIAQISRSPRFDTLVAEQELDSPRINIQSLPAGRYYVRLATRLENDTGPFSDARIIEVEHEDNGMDRTWFDKPRS | not soluble |
| EALSSKVQQLERSIGLKDLAMADLEQKVLEMEASTYDGVFIWKISDFPRKRQEAVAGRIPAIFSPAFYTSRYGYKMCLRIYLNGDGTGRGTHLSLFFVVMKGPNDALLRWPFNQKVTLMLLDQNNREHVIDAFRPDVTSSSFQRPVNDMNIASGCPLFCPVSKMEAKNSYVRDDAIFIKAIVDLTGL | soluble |
| MGSDKIHHHHHHACSDDDKVSISTVGITTTVDTTIEGLQLTGGTYTFENVNTSVKTDITYPAQSIELADGLYNVTFIGKGTYSQNGTPVEVDVQGVQQNVAVSGGSYKLELKVHVLNTGDPDFVIAEIFIPGTYNEAGKQYNGDQYIRIYNNSDKVLYADGLIFMESQFQTTQKYQSVDPDIMDEAIAVGSVVAVPGSGTDYPVQPGESFILCDNAINHKEANPNSIDLSKANFEWYIESKQDVDNPAVPNLDVYYCYSKTIWVLNKQGNRAYAIGRLPKSMTKEKYISDYAYNYTYIMQNGTASKPQSKYKFPNEWVIDAVNVGASNEWQWNVTSTGLDMGHTYIGMNNTVAENIGKCVMRKAAYKDGDREVLQDTNNSTVDFTPAATPSLFNK | not soluble |
| MIEFRDVWFWYQEGKTVLKSISFSFSEGTLAIVGPNGSGKTTLVKMLNGLLKPKKGNVLIDGINTKEVSVAELSRIVGYVFQNPDAMFFEENVFKEVAFGPKNLGLNEEEVKKRVRWALEAVGLRGFENRNPFELSGGEKQRLAIACILAMKPKYLVLDEPNTGLDERGLQDLINVIKNLRREGSSIILVTHDIELVLEVADKVLLLKDGELKFFGSTKEFFELDLEGFGLKEPELVKISKDVGINFVRNVEELLKVIGL | soluble |
